Measurements: PMC10663500, “High-throughput analysis system of interaction kinetics for data-driven antibody design” (Scientific Reports, 2023)

What was measured:
[1] = target: T1, human programmed cell death protein 1 (hPD-1) C93S (aa 24-167) (Homo sapiens, UniProt Q15116, C93S); test: SPR; Carterra LSA; Fab from the ammonium sulfate precipitate of the culture supernatant immobilised on a NiHC200M chip; hPD-1 (1-1024 nM) or mPD-1-Fc (4-1024 nM) as analyte, fourfold dilution series, no regeneration; HBS-EP pH 7.4, 25 °C; medians over the spots of a construct, KD = koff/kon; conditions: one partner purified
T1 construct: made as a fusion with a TEV site and human Fc; the Fc was cut off with TEV protease; source: Expi293F, purified (Protein A, TEV cleavage of Fc, SEC; monomer fractions); not shown: Fc (human), C-terminal, cleaved
Method in brief: (§1)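 Fabs, ammonium sulfate-precipitated from Brevibacillus supernatants and redissolved in HBS-EP, were captured in duplicate on a NiHC200M chip on a Carterra LSA at 25 °C. Fourfold series of human PD-1 (1–1024 nM) or mouse PD-1-Fc (4–1024 nM) were run without regeneration, with association for 10 min and dissociation for 5 min. Rates were fitted with the kdka model, choosing the better of slow- or fast-dissociation settings, and unconfirmed binders were given kon 10^3 […] and koff 10^−2 s^−1. The dissociation constant KD is koff/kon based on per-construct medians.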

[2] = target: T2, mouse programmed cell death protein 1 Fc fusion protein (mPD-1-Fc), mPD-1 C60S (aa 25-167) (Mus musculus, UniProt Q02242, stabilised); test: as above; conditions: one partner purified
T2 construct: not cleaved; source: Expi293F, purified (Protein A, SEC; dimeric fraction); not shown: Fc (human), C-terminal, kept
Method in brief: as §1

T1 sequence (Q15116 24-167 C93S): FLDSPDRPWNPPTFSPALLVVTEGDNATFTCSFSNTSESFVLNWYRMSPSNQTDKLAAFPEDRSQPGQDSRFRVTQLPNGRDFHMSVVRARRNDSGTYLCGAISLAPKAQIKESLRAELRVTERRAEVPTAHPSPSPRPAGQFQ

Binder	Kd [1] [nM]	koff [1] [s⁻¹]	kon [1] [M⁻¹ s⁻¹]	Kd [2] [nM]	koff [2] [s⁻¹]	kon [2] [M⁻¹ s⁻¹]
toripalimab Fab L.V99E (Fab, V domains shown, as the heavy chain of Sm3; light chain of Sm3 with this change; numbers count from the chain's first residue; source: Brevibacillus, culture supernatant (ammonium sulfate precipitate); not shown: 6xHis, C-terminal, kept; 6xHN, C-terminal, kept) VH: QGQLVQSGAEVKKPGASVKVSCKASGYTFTDYEMHWVRQAPIHGLEWIGVIESETGGTAYNQKFKGRVTITADKSTSTAYMELSSLRSEDTAVYYCAREGITTVATTYYWYFDVWGQGTTVTVSS VL: DVVMTQSPLSLPVTLGQPASISCRSSQSIVHSNGNTYLEWYLQKPGQSPQLLIYKVSNRFSGVPDRFSGSGSGTDFTLKISRVEAEDVGVYYCFQGSHEPLTFGQGTKLEIK	< 1.03	< 1e-05	9690	201	0.00742	36800
toripalimab Fab L.V99F (Fab, V domains shown, as the heavy chain of Sm3; light chain of Sm3 with this change; numbers count from the chain's first residue; source: Brevibacillus, culture supernatant (ammonium sulfate precipitate); not shown: 6xHis, C-terminal, kept; 6xHN, C-terminal, kept) VH: QGQLVQSGAEVKKPGASVKVSCKASGYTFTDYEMHWVRQAPIHGLEWIGVIESETGGTAYNQKFKGRVTITADKSTSTAYMELSSLRSEDTAVYYCAREGITTVATTYYWYFDVWGQGTTVTVSS VL: DVVMTQSPLSLPVTLGQPASISCRSSQSIVHSNGNTYLEWYLQKPGQSPQLLIYKVSNRFSGVPDRFSGSGSGTDFTLKISRVEAEDVGVYYCFQGSHFPLTFGQGTKLEIK	2.51	4.24e-05	16900	123	0.00104	8450
toripalimab Fab L.V99G (Fab, V domains shown, as the heavy chain of Sm3; light chain of Sm3 with this change; numbers count from the chain's first residue; source: Brevibacillus, culture supernatant (ammonium sulfate precipitate); not shown: 6xHis, C-terminal, kept; 6xHN, C-terminal, kept) VH: QGQLVQSGAEVKKPGASVKVSCKASGYTFTDYEMHWVRQAPIHGLEWIGVIESETGGTAYNQKFKGRVTITADKSTSTAYMELSSLRSEDTAVYYCAREGITTVATTYYWYFDVWGQGTTVTVSS VL: DVVMTQSPLSLPVTLGQPASISCRSSQSIVHSNGNTYLEWYLQKPGQSPQLLIYKVSNRFSGVPDRFSGSGSGTDFTLKISRVEAEDVGVYYCFQGSHGPLTFGQGTKLEIK	1.75	1.44e-05	8230	< 0.848	< 1e-05	11800
toripalimab Fab L.V99H (Fab, V domains shown, as the heavy chain of Sm3; light chain of Sm3 with this change; numbers count from the chain's first residue; source: Brevibacillus, culture supernatant (ammonium sulfate precipitate); not shown: 6xHis, C-terminal, kept; 6xHN, C-terminal, kept) VH: QGQLVQSGAEVKKPGASVKVSCKASGYTFTDYEMHWVRQAPIHGLEWIGVIESETGGTAYNQKFKGRVTITADKSTSTAYMELSSLRSEDTAVYYCAREGITTVATTYYWYFDVWGQGTTVTVSS VL: DVVMTQSPLSLPVTLGQPASISCRSSQSIVHSNGNTYLEWYLQKPGQSPQLLIYKVSNRFSGVPDRFSGSGSGTDFTLKISRVEAEDVGVYYCFQGSHHPLTFGQGTKLEIK	23.1	0.000239	10400	334	0.00991	29600
toripalimab Fab L.V99I (Fab, V domains shown, as the heavy chain of Sm3; light chain of Sm3 with this change; numbers count from the chain's first residue; source: Brevibacillus, culture supernatant (ammonium sulfate precipitate); not shown: 6xHis, C-terminal, kept; 6xHN, C-terminal, kept) VH: QGQLVQSGAEVKKPGASVKVSCKASGYTFTDYEMHWVRQAPIHGLEWIGVIESETGGTAYNQKFKGRVTITADKSTSTAYMELSSLRSEDTAVYYCAREGITTVATTYYWYFDVWGQGTTVTVSS VL: DVVMTQSPLSLPVTLGQPASISCRSSQSIVHSNGNTYLEWYLQKPGQSPQLLIYKVSNRFSGVPDRFSGSGSGTDFTLKISRVEAEDVGVYYCFQGSHIPLTFGQGTKLEIK	< 0.7	< 1e-05	14300	289	0.014	48500
toripalimab Fab L.V99K (Fab, V domains shown, as the heavy chain of Sm3; light chain of Sm3 with this change; numbers count from the chain's first residue; source: Brevibacillus, culture supernatant (ammonium sulfate precipitate); not shown: 6xHis, C-terminal, kept; 6xHN, C-terminal, kept) VH: QGQLVQSGAEVKKPGASVKVSCKASGYTFTDYEMHWVRQAPIHGLEWIGVIESETGGTAYNQKFKGRVTITADKSTSTAYMELSSLRSEDTAVYYCAREGITTVATTYYWYFDVWGQGTTVTVSS VL: DVVMTQSPLSLPVTLGQPASISCRSSQSIVHSNGNTYLEWYLQKPGQSPQLLIYKVSNRFSGVPDRFSGSGSGTDFTLKISRVEAEDVGVYYCFQGSHKPLTFGQGTKLEIK	30.7	0.000131	4260	285	0.00439	15400
toripalimab Fab L.V99L (Fab, V domains shown, as the heavy chain of Sm3; light chain of Sm3 with this change; numbers count from the chain's first residue; source: Brevibacillus, culture supernatant (ammonium sulfate precipitate); not shown: 6xHis, C-terminal, kept; 6xHN, C-terminal, kept) VH: QGQLVQSGAEVKKPGASVKVSCKASGYTFTDYEMHWVRQAPIHGLEWIGVIESETGGTAYNQKFKGRVTITADKSTSTAYMELSSLRSEDTAVYYCAREGITTVATTYYWYFDVWGQGTTVTVSS VL: DVVMTQSPLSLPVTLGQPASISCRSSQSIVHSNGNTYLEWYLQKPGQSPQLLIYKVSNRFSGVPDRFSGSGSGTDFTLKISRVEAEDVGVYYCFQGSHLPLTFGQGTKLEIK	< 1.43	< 1e-05	7020	407	0.00629	15500
toripalimab Fab L.V99M (Fab, V domains shown, as the heavy chain of Sm3; light chain of Sm3 with this change; numbers count from the chain's first residue; source: Brevibacillus, culture supernatant (ammonium sulfate precipitate); not shown: 6xHis, C-terminal, kept; 6xHN, C-terminal, kept) VH: QGQLVQSGAEVKKPGASVKVSCKASGYTFTDYEMHWVRQAPIHGLEWIGVIESETGGTAYNQKFKGRVTITADKSTSTAYMELSSLRSEDTAVYYCAREGITTVATTYYWYFDVWGQGTTVTVSS VL: DVVMTQSPLSLPVTLGQPASISCRSSQSIVHSNGNTYLEWYLQKPGQSPQLLIYKVSNRFSGVPDRFSGSGSGTDFTLKISRVEAEDVGVYYCFQGSHMPLTFGQGTKLEIK	1.43	3.17e-05	22100	590	0.00702	11900
toripalimab Fab L.V99N (Fab, V domains shown, as the heavy chain of Sm3; light chain of Sm3 with this change; numbers count from the chain's first residue; source: Brevibacillus, culture supernatant (ammonium sulfate precipitate); not shown: 6xHis, C-terminal, kept; 6xHN, C-terminal, kept) VH: QGQLVQSGAEVKKPGASVKVSCKASGYTFTDYEMHWVRQAPIHGLEWIGVIESETGGTAYNQKFKGRVTITADKSTSTAYMELSSLRSEDTAVYYCAREGITTVATTYYWYFDVWGQGTTVTVSS VL: DVVMTQSPLSLPVTLGQPASISCRSSQSIVHSNGNTYLEWYLQKPGQSPQLLIYKVSNRFSGVPDRFSGSGSGTDFTLKISRVEAEDVGVYYCFQGSHNPLTFGQGTKLEIK	3.03	5.61e-05	18500	169	0.00665	39400
toripalimab Fab L.V99P (Fab, V domains shown, as the heavy chain of Sm3; light chain of Sm3 with this change; numbers count from the chain's first residue; source: Brevibacillus, culture supernatant (ammonium sulfate precipitate); not shown: 6xHis, C-terminal, kept; 6xHN, C-terminal, kept) VH: QGQLVQSGAEVKKPGASVKVSCKASGYTFTDYEMHWVRQAPIHGLEWIGVIESETGGTAYNQKFKGRVTITADKSTSTAYMELSSLRSEDTAVYYCAREGITTVATTYYWYFDVWGQGTTVTVSS VL: DVVMTQSPLSLPVTLGQPASISCRSSQSIVHSNGNTYLEWYLQKPGQSPQLLIYKVSNRFSGVPDRFSGSGSGTDFTLKISRVEAEDVGVYYCFQGSHPPLTFGQGTKLEIK	19.8	0.000192	9660	24.7	0.0007	28300
toripalimab Fab L.V99Q (Fab, V domains shown, as the heavy chain of Sm3; light chain of Sm3 with this change; numbers count from the chain's first residue; source: Brevibacillus, culture supernatant (ammonium sulfate precipitate); not shown: 6xHis, C-terminal, kept; 6xHN, C-terminal, kept) VH: QGQLVQSGAEVKKPGASVKVSCKASGYTFTDYEMHWVRQAPIHGLEWIGVIESETGGTAYNQKFKGRVTITADKSTSTAYMELSSLRSEDTAVYYCAREGITTVATTYYWYFDVWGQGTTVTVSS VL: DVVMTQSPLSLPVTLGQPASISCRSSQSIVHSNGNTYLEWYLQKPGQSPQLLIYKVSNRFSGVPDRFSGSGSGTDFTLKISRVEAEDVGVYYCFQGSHQPLTFGQGTKLEIK	8.06	6.39e-05	7930	445	0.0167	37600
toripalimab Fab L.V99S (Fab, V domains shown, as the heavy chain of Sm3; light chain of Sm3 with this change; numbers count from the chain's first residue; source: Brevibacillus, culture supernatant (ammonium sulfate precipitate); not shown: 6xHis, C-terminal, kept; 6xHN, C-terminal, kept) VH: QGQLVQSGAEVKKPGASVKVSCKASGYTFTDYEMHWVRQAPIHGLEWIGVIESETGGTAYNQKFKGRVTITADKSTSTAYMELSSLRSEDTAVYYCAREGITTVATTYYWYFDVWGQGTTVTVSS VL: DVVMTQSPLSLPVTLGQPASISCRSSQSIVHSNGNTYLEWYLQKPGQSPQLLIYKVSNRFSGVPDRFSGSGSGTDFTLKISRVEAEDVGVYYCFQGSHSPLTFGQGTKLEIK	< 1.16	< 1e-05	8660	4.51	6.95e-05	15400
toripalimab Fab L.V99W (Fab, V domains shown, as the heavy chain of Sm3; light chain of Sm3 with this change; numbers count from the chain's first residue; source: Brevibacillus, culture supernatant (ammonium sulfate precipitate); not shown: 6xHis, C-terminal, kept; 6xHN, C-terminal, kept) VH: QGQLVQSGAEVKKPGASVKVSCKASGYTFTDYEMHWVRQAPIHGLEWIGVIESETGGTAYNQKFKGRVTITADKSTSTAYMELSSLRSEDTAVYYCAREGITTVATTYYWYFDVWGQGTTVTVSS VL: DVVMTQSPLSLPVTLGQPASISCRSSQSIVHSNGNTYLEWYLQKPGQSPQLLIYKVSNRFSGVPDRFSGSGSGTDFTLKISRVEAEDVGVYYCFQGSHWPLTFGQGTKLEIK	45.3	0.000522	11500	254	0.0065	25600
toripalimab Fab H.E52Y (Fab, V domains shown, heavy chain of Sm3 with this change; numbers count from the chain's first residue; as the light chain of Sm3; source: Brevibacillus, culture supernatant (ammonium sulfate precipitate); not shown: 6xHis, C-terminal, kept; 6xHN, C-terminal, kept) VH: QGQLVQSGAEVKKPGASVKVSCKASGYTFTDYEMHWVRQAPIHGLEWIGVIYSETGGTAYNQKFKGRVTITADKSTSTAYMELSSLRSEDTAVYYCAREGITTVATTYYWYFDVWGQGTTVTVSS VL: DVVMTQSPLSLPVTLGQPASISCRSSQSIVHSNGNTYLEWYLQKPGQSPQLLIYKVSNRFSGVPDRFSGSGSGTDFTLKISRVEAEDVGVYYCFQGSHVPLTFGQGTKLEIK	49.4	0.000629	12700	600	0.149	247000
toripalimab Fab L.V99Y (Fab, V domains shown, as the heavy chain of Sm3; light chain of Sm3 with this change; numbers count from the chain's first residue; source: Brevibacillus, culture supernatant (ammonium sulfate precipitate); not shown: 6xHis, C-terminal, kept; 6xHN, C-terminal, kept) VH: QGQLVQSGAEVKKPGASVKVSCKASGYTFTDYEMHWVRQAPIHGLEWIGVIESETGGTAYNQKFKGRVTITADKSTSTAYMELSSLRSEDTAVYYCAREGITTVATTYYWYFDVWGQGTTVTVSS VL: DVVMTQSPLSLPVTLGQPASISCRSSQSIVHSNGNTYLEWYLQKPGQSPQLLIYKVSNRFSGVPDRFSGSGSGTDFTLKISRVEAEDVGVYYCFQGSHYPLTFGQGTKLEIK	5.01	0.000155	30900	576	0.0369	63900
